T1: TIGIT (human)
T1 chain: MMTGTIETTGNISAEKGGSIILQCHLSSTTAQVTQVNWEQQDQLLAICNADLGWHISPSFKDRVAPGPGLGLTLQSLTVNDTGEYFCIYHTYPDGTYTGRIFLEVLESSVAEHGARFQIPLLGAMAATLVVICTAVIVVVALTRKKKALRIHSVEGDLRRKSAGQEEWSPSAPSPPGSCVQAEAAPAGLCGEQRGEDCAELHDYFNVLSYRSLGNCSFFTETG


Target: T1, TIGIT
Assay: cell-based or functional assay

Row | Binder | IL-2 luciferase reporter, Normalized Fold Change from CD155-ECD, proteins at 50 nM [fold]
1 | variant CD155 IgV-Fc V9L, P18S, Q60R, V75L, L79P, R89K, F91S, L104E, G111R (Fc fusion) WPPPGTGDLVVQAPTQVSGFLGDSVTLPCYLQVPNMEVTHVSQLTWARHGESGSMAVFHRTQGPSYSESKRLEFLAARPGAELRNASLKMSGLRVEDEGNYTCEFVTFPQRSRSVDIWLRVLGSGGGGSEPKSSDKTHTCPPCPAPEAEGAPSVFLFPPKPKDTLMISRTPEVTCVVVDVSHEDPEVKFNWYVDGVEVHNAKTKPREEQYNSTYRVVSVLTVLHQDWLNGKEYKCKVSNKALPAPIEKTISKAKGQPREPQVYTLPPSRDELTKNQVSLTCLVKGFYPSDIAVEWESNGQPENNYKTTPPVLDSDGSFFLYSKLTVDKSRWQQGNVFSCSVMHEALHNHYTQKSLSLSPGK | 1.8
2 | variant CD155 IgV-Fc V11A, P18S, L79P, F91S, L104M, G111R (Fc fusion) WPPPGTGDVVAQAPTQVSGFLGDSVTLPCYLQVPNMEVTHVSQLTWARHGESGSMAVFHQTQGPSYSESKRLEFVAARPGAELRNASLRMSGLRVEDEGNYTCMFVTFPQRSRSVDIWLRVLGSGGGGSEPKSSDKTHTCPPCPAPEAEGAPSVFLFPPKPKDTLMISRTPEVTCVVVDVSHEDPEVKFNWYVDGVEVHNAKTKPREEQYNSTYRVVSVLTVLHQDWLNGKEYKCKVSNKALPAPIEKTISKAKGQPREPQVYTLPPSRDELTKNQVSLTCLVKGFYPSDIAVEWESNGQPENNYKTTPPVLDSDGSFFLYSKLTVDKSRWQQGNVFSCSVMHEALHNHYTQKSLSLSPGK | 0.4
3 | variant CD155 IgV-Fc V11A, P18S, S54R, Q60P, Q62K, L79P, N85D, F91S, T107M (Fc fusion) WPPPGTGDVVAQAPTQVSGFLGDSVTLPCYLQVPNMEVTHVSQLTWARHGESGRMAVFHPTKGPSYSESKRLEFVAARPGAELRDASLRMSGLRVEDEGNYTCLFVMFPQGSRSVDIWLRVLGSGGGGSEPKSSDKTHTCPPCPAPEAEGAPSVFLFPPKPKDTLMISRTPEVTCVVVDVSHEDPEVKFNWYVDGVEVHNAKTKPREEQYNSTYRVVSVLTVLHQDWLNGKEYKCKVSNKALPAPIEKTISKAKGQPREPQVYTLPPSRDELTKNQVSLTCLVKGFYPSDIAVEWESNGQPENNYKTTPPVLDSDGSFFLYSKLTVDKSRWQQGNVFSCSVMHEALHNHYTQKSLSLSPGK | 2.6
4 | variant CD155 IgV-Fc P18T, S52P, S65A, S67V, L79P, F91S, L104M, G111R (Fc fusion) WPPPGTGDVVVQAPTQVTGFLGDSVTLPCYLQVPNMEVTHVSQLTWARHGEPGSMAVFHQTQGPAYVESKRLEFVAARPGAELRNASLRMSGLRVEDEGNYTCMFVTFPQRSRSVDIWLRVLGSGGGGSEPKSSDKTHTCPPCPAPEAEGAPSVFLFPPKPKDTLMISRTPEVTCVVVDVSHEDPEVKFNWYVDGVEVHNAKTKPREEQYNSTYRVVSVLTVLHQDWLNGKEYKCKVSNKALPAPIEKTISKAKGQPREPQVYTLPPSRDELTKNQVSLTCLVKGFYPSDIAVEWESNGQPENNYKTTPPVLDSDGSFFLYSKLTVDKSRWQQGNVFSCSVMHEALHNHYTQKSLSLSPGK | 3.6
5 | variant CD155 IgV-Fc P18T, M36T, L79P, F91S, G111R (Fc fusion) WPPPGTGDVVVQAPTQVTGFLGDSVTLPCYLQVPNTEVTHVSQLTWARHGESGSMAVFHQTQGPSYSESKRLEFVAARPGAELRNASLRMSGLRVEDEGNYTCLFVTFPQRSRSVDIWLRVLGSGGGGSEPKSSDKTHTCPPCPAPEAEGAPSVFLFPPKPKDTLMISRTPEVTCVVVDVSHEDPEVKFNWYVDGVEVHNAKTKPREEQYNSTYRVVSVLTVLHQDWLNGKEYKCKVSNKALPAPIEKTISKAKGQPREPQVYTLPPSRDELTKNQVSLTCLVKGFYPSDIAVEWESNGQPENNYKTTPPVLDSDGSFFLYSKLTVDKSRWQQGNVFSCSVMHEALHNHYTQKSLSLSPGK | 4.1
6 | variant CD155 IgV-Fc D8G, P18S, M36I, V38A, H49Q, A76E, F91S, L104M, T107A, R113W (Fc fusion) WPPPGTGGVVVQAPTQVSGFLGDSVTLPCYLQVPNIEATHVSQLTWARQGESGSMAVFHQTQGPSYSESKRLEFVEARLGAELRNASLRMSGLRVEDEGNYTCMFVAFPQGSWSVDIWLRVLGSGGGGSEPKSSDKTHTCPPCPAPEAEGAPSVFLFPPKPKDTLMISRTPEVTCVVVDVSHEDPEVKFNWYVDGVEVHNAKTKPREEQYNSTYRVVSVLTVLHQDWLNGKEYKCKVSNKALPAPIEKTISKAKGQPREPQVYTLPPSRDELTKNQVSLTCLVKGFYPSDIAVEWESNGQPENNYKTTPPVLDSDGSFFLYSKLTVDKSRWQQGNVFSCSVMHEALHNHYTQKSLSLSPGK | 4
7 | variant CD155 IgV-Fc P18S, S52P, S65A, S67V, L79P, F91S, L104M, T107S, R113W (Fc fusion) WPPPGTGDVVVQAPTQVSGFLGDSVTLPCYLQVPNMEVTHVSQLTWARHGEPGSMAVFHQTQGPAYVESKRLEFVAARPGAELRNASLRMSGLRVEDEGNYTCMFVSFPQGSWSVDIWLRVLGSGGGGSEPKSSDKTHTCPPCPAPEAEGAPSVFLFPPKPKDTLMISRTPEVTCVVVDVSHEDPEVKFNWYVDGVEVHNAKTKPREEQYNSTYRVVSVLTVLHQDWLNGKEYKCKVSNKALPAPIEKTISKAKGQPREPQVYTLPPSRDELTKNQVSLTCLVKGFYPSDIAVEWESNGQPENNYKTTPPVLDSDGSFFLYSKLTVDKSRWQQGNVFSCSVMHEALHNHYTQKSLSLSPGK | -0.1
8 | variant CD155 IgV-Fc T15I, P18T, L79P, F91S, L104M, G111R (Fc fusion) WPPPGTGDVVVQAPIQVTGFLGDSVTLPCYLQVPNMEVTHVSQLTWARHGESGSMAVFHQTQGPSYSESKRLEFVAARPGAELRNASLRMSGLRVEDEGNYTCMFVTFPQRSRSVDIWLRVLGSGGGGSEPKSSDKTHTCPPCPAPEAEGAPSVFLFPPKPKDTLMISRTPEVTCVVVDVSHEDPEVKFNWYVDGVEVHNAKTKPREEQYNSTYRVVSVLTVLHQDWLNGKEYKCKVSNKALPAPIEKTISKAKGQPREPQVYTLPPSRDELTKNQVSLTCLVKGFYPSDIAVEWESNGQPENNYKTTPPVLDSDGSFFLYSKLTVDKSRWQQGNVFSCSVMHEALHNHYTQKSLSLSPGK | 0.4
9 | variant CD155 IgV-Fc P18F, T26M, L44V, Q62K, L79P, E82D, F91S, L104M, G111D (Fc fusion) WPPPGTGDVVVQAPTQVFGFLGDSVMLPCYLQVPNMEVTHVSQVTWARHGESGSMAVFHQTKGPSYSESKRLEFVAARPGADLRNASLRMSGLRVEDEGNYTCMFVTFPQDSRSVDIWLRVLGSGGGGSEPKSSDKTHTCPPCPAPEAEGAPSVFLFPPKPKDTLMISRTPEVTCVVVDVSHEDPEVKFNWYVDGVEVHNAKTKPREEQYNSTYRVVSVLTVLHQDWLNGKEYKCKVSNKALPAPIEKTISKAKGQPREPQVYTLPPSRDELTKNQVSLTCLVKGFYPSDIAVEWESNGQPENNYKTTPPVLDSDGSFFLYSKLTVDKSRWQQGNVFSCSVMHEALHNHYTQKSLSLSPGK | 4
10 | variant CD155 IgV-Fc P18T, E37G, G53R, Q62K, L79P, F91S, E98D, L104M, T107M (Fc fusion) WPPPGTGDVVVQAPTQVTGFLGDSVTLPCYLQVPNMGVTHVSQLTWARHGESRSMAVFHQTKGPSYSESKRLEFVAARPGAELRNASLRMSGLRVEDDGNYTCMFVMFPQGSRSVDIWLRVLGSGGGGSEPKSSDKTHTCPPCPAPEAEGAPSVFLFPPKPKDTLMISRTPEVTCVVVDVSHEDPEVKFNWYVDGVEVHNAKTKPREEQYNSTYRVVSVLTVLHQDWLNGKEYKCKVSNKALPAPIEKTISKAKGQPREPQVYTLPPSRDELTKNQVSLTCLVKGFYPSDIAVEWESNGQPENNYKTTPPVLDSDGSFFLYSKLTVDKSRWQQGNVFSCSVMHEALHNHYTQKSLSLSPGK | 8.6
11 | variant CD155 IgV-Fc P18L, K70E, L79P, F91S, V95A, G111R (Fc fusion) WPPPGTGDVVVQAPTQVLGFLGDSVTLPCYLQVPNMEVTHVSQLTWARHGESGSMAVFHQTQGPSYSESERLEFVAARPGAELRNASLRMSGLRAEDEGNYTCLFVTFPQRSRSVDIWLRVLGSGGGGSEPKSSDKTHTCPPCPAPEAEGAPSVFLFPPKPKDTLMISRTPEVTCVVVDVSHEDPEVKFNWYVDGVEVHNAKTKPREEQYNSTYRVVSVLTVLHQDWLNGKEYKCKVSNKALPAPIEKTISKAKGQPREPQVYTLPPSRDELTKNQVSLTCLVKGFYPSDIAVEWESNGQPENNYKTTPPVLDSDGSFFLYSKLTVDKSRWQQGNVFSCSVMHEALHNHYTQKSLSLSPGK | 2.4
12 | variant CD155 IgV-Fc V9I, Q12K, P18F, S65A, S67V, L79P, L104T, G111R, S112I (Fc fusion) WPPPGTGDIVVKAPTQVFGFLGDSVTLPCYLQVPNMEVTHVSQLTWARHGESGSMAVFHQTQGPAYVESKRLEFVAARPGAELRNASLRMFGLRVEDEGNYTCTFVTFPQRIRSVDIWLRVLGSGGGGSEPKSSDKTHTCPPCPAPEAEGAPSVFLFPPKPKDTLMISRTPEVTCVVVDVSHEDPEVKFNWYVDGVEVHNAKTKPREEQYNSTYRVVSVLTVLHQDWLNGKEYKCKVSNKALPAPIEKTISKAKGQPREPQVYTLPPSRDELTKNQVSLTCLVKGFYPSDIAVEWESNGQPENNYKTTPPVLDSDGSFFLYSKLTVDKSRWQQGNVFSCSVMHEALHNHYTQKSLSLSPGK | 2.3
13 | variant CD155 IgV-Fc P18F, S65A, S67V, F91S, L104M, G111R (Fc fusion) WPPPGTGDVVVQAPTQVFGFLGDSVTLPCYLQVPNMEVTHVSQLTWARHGESGSMAVFHQTQGPAYVESKRLEFVAARLGAELRNASLRMSGLRVEDEGNYTCMFVTFPQRSRSVDIWLRVLGSGGGGSEPKSSDKTHTCPPCPAPEAEGAPSVFLFPPKPKDTLMISRTPEVTCVVVDVSHEDPEVKFNWYVDGVEVHNAKTKPREEQYNSTYRVVSVLTVLHQDWLNGKEYKCKVSNKALPAPIEKTISKAKGQPREPQVYTLPPSRDELTKNQVSLTCLVKGFYPSDIAVEWESNGQPENNYKTTPPVLDSDGSFFLYSKLTVDKSRWQQGNVFSCSVMHEALHNHYTQKSLSLSPGK | 0.6
14 | variant CD155 IgV-Fc V9I, V10I, P18S, F20S, T45A, L79P, F91S, L104M, F108Y, G111R, S112V (Fc fusion) WPPPGTGDIIVQAPTQVSGSLGDSVTLPCYLQVPNMEVTHVSQLAWARHGESGSMAVFHQTQGPSYSESKRLEFVAARPGAELRNASLRMSGLRVEDEGNYTCMFVTYPQRVRSVDIWLRVLGSGGGGSEPKSSDKTHTCPPCPAPEAEGAPSVFLFPPKPKDTLMISRTPEVTCVVVDVSHEDPEVKFNWYVDGVEVHNAKTKPREEQYNSTYRVVSVLTVLHQDWLNGKEYKCKVSNKALPAPIEKTISKAKGQPREPQVYTLPPSRDELTKNQVSLTCLVKGFYPSDIAVEWESNGQPENNYKTTPPVLDSDGSFFLYSKLTVDKSRWQQGNVFSCSVMHEALHNHYTQKSLSLSPGK | -1.9
